In article PMC5855951:

Target: METTL3;METTL14 (human?;human?, UniProt Q86U44;Q9HCE5 1-580;1-456, |)
Assay: filter binding

Sequence of METTL3;METTL14 (Q86U44 whole entry, chain 1 of 2): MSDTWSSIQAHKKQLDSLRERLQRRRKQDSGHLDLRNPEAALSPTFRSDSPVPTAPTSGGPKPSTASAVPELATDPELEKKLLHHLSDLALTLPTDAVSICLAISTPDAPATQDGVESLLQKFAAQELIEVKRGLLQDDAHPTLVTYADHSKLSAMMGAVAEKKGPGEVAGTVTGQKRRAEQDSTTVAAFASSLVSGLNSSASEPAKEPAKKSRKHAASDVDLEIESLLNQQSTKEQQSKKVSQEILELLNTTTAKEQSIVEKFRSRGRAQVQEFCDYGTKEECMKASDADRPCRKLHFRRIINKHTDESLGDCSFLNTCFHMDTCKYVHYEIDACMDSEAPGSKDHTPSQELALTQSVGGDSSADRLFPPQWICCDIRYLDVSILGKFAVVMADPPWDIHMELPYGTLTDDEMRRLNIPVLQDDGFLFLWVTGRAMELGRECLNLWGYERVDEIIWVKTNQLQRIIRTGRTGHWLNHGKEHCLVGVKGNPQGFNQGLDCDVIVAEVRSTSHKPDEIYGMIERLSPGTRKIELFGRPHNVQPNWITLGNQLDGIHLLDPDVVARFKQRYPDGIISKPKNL
Sequence of METTL3;METTL14 (Q9HCE5 whole entry, chain 2 of 2): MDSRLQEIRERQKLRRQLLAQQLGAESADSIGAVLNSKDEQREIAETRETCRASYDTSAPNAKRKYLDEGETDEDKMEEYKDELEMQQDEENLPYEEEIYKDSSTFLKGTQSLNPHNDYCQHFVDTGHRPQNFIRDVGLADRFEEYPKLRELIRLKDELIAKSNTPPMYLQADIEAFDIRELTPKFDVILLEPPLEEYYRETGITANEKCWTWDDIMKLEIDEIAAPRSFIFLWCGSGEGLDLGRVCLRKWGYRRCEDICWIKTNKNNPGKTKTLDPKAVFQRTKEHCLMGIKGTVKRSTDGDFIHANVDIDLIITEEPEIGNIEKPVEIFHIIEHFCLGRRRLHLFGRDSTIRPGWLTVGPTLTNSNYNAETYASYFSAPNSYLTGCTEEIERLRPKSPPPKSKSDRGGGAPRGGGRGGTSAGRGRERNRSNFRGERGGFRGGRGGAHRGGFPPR

GGACUGGACUGGACUGGACU (ssRNA) [4x GGACU RNA probe]: binds.
